From article PMC7382286 (2020)

T1: biotinylated recombinant human Arginase 2 (human, UniProt P78540 23-354, biotin (biotinylated; site not stated))
T1 chain: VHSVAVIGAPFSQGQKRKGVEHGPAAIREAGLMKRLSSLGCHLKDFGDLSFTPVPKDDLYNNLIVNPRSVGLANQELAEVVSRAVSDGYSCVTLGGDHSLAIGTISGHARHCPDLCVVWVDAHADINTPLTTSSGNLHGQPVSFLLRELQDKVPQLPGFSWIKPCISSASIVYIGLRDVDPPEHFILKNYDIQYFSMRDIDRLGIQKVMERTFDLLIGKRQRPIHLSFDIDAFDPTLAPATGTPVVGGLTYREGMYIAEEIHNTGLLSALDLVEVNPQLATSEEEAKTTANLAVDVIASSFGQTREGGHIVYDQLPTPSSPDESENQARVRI


Key:
[1] = molecular target: T1, biotinylated recombinant human Arginase …; test: BLI
[2] = molecular target: T1, biotinylated recombinant human Arginase …; test: BLI

koff [1] [s⁻¹]	Kd [2] [nM]	Binder
4.2e-05	0.29	Fab C0021181 (Fab, V domains shown) VH: EVQLLESGGGLVRPGGSLRLSCAASEFTFRYDYHVWVRQAPGKGLEWVSAISGSGGSTYYADSVKSRFTISRDNSKNTLYLQMNSLRAEDTAVYYCARLRADLGLYMDLWGRGTLVTVSS VL: QSVLTQPPSVSAAPGQKVAVSCSGSSSNIGSHYVSWYQQLPGTAPKLLIYDNSERTSGIPDRFSGSKSGTSATLGITGLQTGDEADYYCGTWDELTSNLVFGGGTRLTVL
3.5e-05	0.17	Fab C0021177 (Fab, V domains shown) VH: EVQLLESGGGLVQPGGSLRLSCAASGFTFRYEVAAWVRQAPGKGLEWVSAISGPAPKGYYADSVKGRFTISRDNSKNTLYLQMNSLRAEDTAVYYCARLRADLGLYMDLWGRGTLVTVSS VL: QSELTQPPTASAAPGQKVTISCSGSSSNIGNHYVSWYQQLPGTAPKLLIYDTTVLSSGIPDRFSGSKSGTSATLGITGLQTGDEADYYCGTWDELTSNLVFGGGTKLTVL
0.00045	2.1	Fab C0021133 (Fab, V domains shown) VH: EVQLLESGGGLVQPGGSLRLSCAASGFTFRYDHHVWVRQAPGKGLEWVSAISGSGGSTYYADSVKGRFTISRDNSKNTLYLQMNSLRAEDTAVYYCARLRADLGLYMDLWGRGTLVTVSS VL: QSVLTQPPSVSAAPGQKVTVSCSGSSSNIGNHYVSWYQQLPGTAPKLLIYDTTVLSSGIPDRFSGSKSGTSATLGITGLQTGDEADYYCGTWDELTSNLVFGGGTKLTVL
0.00067	2.5	Fab C0021128 (Fab, V domains shown) VH: EVQLLESGGGLVQPGGSLRLSCAASGFTFQYEVAAWVRQAPGKGLEWVSAISGPIPKGYYADSVKGRFTISRDNSKNTLYLQMNSLRAEDTAVYYCARLRADLGLYMDLWGRGTLVTVSS VL: QSVLTQPPSVSAAPGQKVTISCSGSSSNIGNHYVSWYQQLPGTAPKLLIYDNAIESSGIPDRFSGSKSGTSATLGITGLQTGDGADYYCGTWDSNLSALVFGGGTKLTVL
4.5e-05	0.17	Fab C0021158 (Fab, V domains shown) VH: EVQLLESGGGLVQPGGSLRLSCAASGFTFRYEVAAWVRQAPGKGLEWVSAISGPIPKGYYADSVKGRFTISRDNSKNTLYLQMNSLRAEDTAVYYCARLRADLGLYMDLWGRGTLVTVSS VL: QSVLTQPPSVSAAPGQKVTISCSGSSSNIGNHYVSWYQQLPGTAPKLLIYDNSERTAGVPDRFSGSKSGTSATLGITGLQTGDEADYYCGTWDELTSNLVFGGGTKLTVL
0.00087	4.4	Fab C0021139 (Fab, V domains shown) VH: EVQLLESGGGLVQPGGSLRLSCAASGFTFQYDYQVWVRQAPGKGLEWVSAISGSGGSTYYADSVKGRFTISRDNSKNTLYLQMNSLRAEDTAVYYCARLRADLGLYMDLWGRGTLVTVSS VL: QSVLTQPPSVSAAPGQKVTISCSGSSSNIGNHYVSWYQQLPGTAPKLLIYDNSERTSGIPDRFSGSKSGTSATLGITGLQTGDEADYYCGTWDELTSNLVFGGGTKLTVL
